According to patent publication US5773001 (American Cyanamid Company, dated 1998):
Where two headings read alike, the source gives them in different places.

Experiments:
[1] = molecular target: CD33 antigen (human) (UniProt P20138); assay: competition with 125I-labelled native antibody on HEL 92.1.7 cells; IC50 (reference) / IC50 (sample)
[2] = molecular target: CD33 antigen (human) (UniProt P20138)
[3] = molecular target: CD33 antigen (human) (UniProt P20138); remark: listed apart in the source
[4] = molecular target: CD33 antigen (human) (UniProt P20138); remark: listed apart in the source
[5] = molecular target: CD33 antigen (human) (UniProt P20138); remark: listed apart in the source
[6] = molecular target: CD33 antigen (human) (UniProt P20138); remark: listed apart in the source
[7] = molecular target: CD33 antigen (human) (UniProt P20138); remark: listed apart in the source
[8] = molecular target: CD33 antigen (human) (UniProt P20138); remark: listed apart in the source
[9] = molecular target: CD33 antigen (human) (UniProt P20138); remark: listed apart in the source
[10] = molecular target: CD33 antigen (human) (UniProt P20138); remark: listed apart in the source
[11] = molecular target: CD33 antigen (human) (UniProt P20138); remark: listed apart in the source

Rel. Affinity [1] | Binder | further results
1.01 | Conjugate of 4-(4-acetyl-3-fluorophenoxy)butanoic acid (30) condensed with Calicheamicin N-acetyl gamma dimethyl hydrazide and h-P67.6 (antibody, V domains shown, drug-linker amide on lysine side chains, sites not stated; drug-linker amide on lysine side chains, sites not stated) VH: EVQLVQSGAEVKKPGSSVKVSCKASGYTITDSNIHWVRQAPGQSLEWIGYIYPYNGGTDYNQKFKNRATLTVDNPTNTAYMELSSLRSEDTDFYYCVNGNPWLAYWGQGTLVTVSS VL: DIQLTQSPSTLSASVGDRVTITCRASESLDNYGIRFLTWFQQKPGKAPKLLMYAASNQGSGVPSRFSGSGSGTEFTLTISSLQPDDFATYYCQQTKEVPWSFGQGTKVEVKR | In vitro IC50 (3H-thymidine incorporation) [2]: 0.005 ng/mL
1.3 | Conjugate of 4-(4-formyl-2-nitrophenoxy)butanoic acid (27) condensed with Calicheamicin N-acetyl gamma dimethyl hydrazide and h-P67.6 (antibody, V domains shown, drug-linker amide on lysine side chains, sites not stated; drug-linker amide on lysine side chains, sites not stated) VH: EVQLVQSGAEVKKPGSSVKVSCKASGYTITDSNIHWVRQAPGQSLEWIGYIYPYNGGTDYNQKFKNRATLTVDNPTNTAYMELSSLRSEDTDFYYCVNGNPWLAYWGQGTLVTVSS VL: DIQLTQSPSTLSASVGDRVTITCRASESLDNYGIRFLTWFQQKPGKAPKLLMYAASNQGSGVPSRFSGSGSGTEFTLTISSLQPDDFATYYCQQTKEVPWSFGQGTKVEVKR | In vitro IC50 (3H-thymidine incorporation) [3]: 0.023 ng/mL
0.98 | Conjugate of 4-(4-acetylphenyl)-1-piperazinepentanoic acid (22) condensed with Calicheamicin N-acetyl gamma dimethyl hydrazide and h-P67.6 (antibody, V domains shown, drug-linker amide on lysine side chains, sites not stated; drug-linker amide on lysine side chains, sites not stated) VH: EVQLVQSGAEVKKPGSSVKVSCKASGYTITDSNIHWVRQAPGQSLEWIGYIYPYNGGTDYNQKFKNRATLTVDNPTNTAYMELSSLRSEDTDFYYCVNGNPWLAYWGQGTLVTVSS VL: DIQLTQSPSTLSASVGDRVTITCRASESLDNYGIRFLTWFQQKPGKAPKLLMYAASNQGSGVPSRFSGSGSGTEFTLTISSLQPDDFATYYCQQTKEVPWSFGQGTKVEVKR | In vitro IC50 (3H-thymidine incorporation) [6]: 12 ng/mL
0.91 | Conjugate of 4-acetylphenylacetic acid (33) condensed with Calicheamicin N-acetyl gamma dimethyl hydrazide and h-P67.6 (antibody, V domains shown, drug-linker amide on lysine side chains, sites not stated; drug-linker amide on lysine side chains, sites not stated) VH: EVQLVQSGAEVKKPGSSVKVSCKASGYTITDSNIHWVRQAPGQSLEWIGYIYPYNGGTDYNQKFKNRATLTVDNPTNTAYMELSSLRSEDTDFYYCVNGNPWLAYWGQGTLVTVSS VL: DIQLTQSPSTLSASVGDRVTITCRASESLDNYGIRFLTWFQQKPGKAPKLLMYAASNQGSGVPSRFSGSGSGTEFTLTISSLQPDDFATYYCQQTKEVPWSFGQGTKVEVKR | In vitro IC50 (3H-thymidine incorporation) [7]: < 0.005 ng/mL
0.8 | Conjugate of 11-(4-acetylphenoxy)undecanoic acid (23) condensed with Calicheamicin N-acetyl gamma dimethyl hydrazide and h-P67.6 (antibody, V domains shown, drug-linker amide on lysine side chains, sites not stated; drug-linker amide on lysine side chains, sites not stated) VH: EVQLVQSGAEVKKPGSSVKVSCKASGYTITDSNIHWVRQAPGQSLEWIGYIYPYNGGTDYNQKFKNRATLTVDNPTNTAYMELSSLRSEDTDFYYCVNGNPWLAYWGQGTLVTVSS VL: DIQLTQSPSTLSASVGDRVTITCRASESLDNYGIRFLTWFQQKPGKAPKLLMYAASNQGSGVPSRFSGSGSGTEFTLTISSLQPDDFATYYCQQTKEVPWSFGQGTKVEVKR | In vitro IC50 (3H-thymidine incorporation) [11]: 0.43 ng/mL

Continued, binder first:

Binder | Rel. Affinity [1] | further results
Conjugate of 4-(2-Acetylphenoxy)butanoic acid (31) condensed with Calicheamicin N-acetyl gamma dimethyl hydrazide and h-P67.6 (antibody, V domains shown, drug-linker amide on lysine side chains, sites not stated; drug-linker amide on lysine side chains, sites not stated) VH: EVQLVQSGAEVKKPGSSVKVSCKASGYTITDSNIHWVRQAPGQSLEWIGYIYPYNGGTDYNQKFKNRATLTVDNPTNTAYMELSSLRSEDTDFYYCVNGNPWLAYWGQGTLVTVSS VL: DIQLTQSPSTLSASVGDRVTITCRASESLDNYGIRFLTWFQQKPGKAPKLLMYAASNQGSGVPSRFSGSGSGTEFTLTISSLQPDDFATYYCQQTKEVPWSFGQGTKVEVKR | 0.95 | In vitro IC50 (3H-thymidine incorporation) [4]: < 0.005 ng/mL
Conjugate of 4-(2-chloro-4-formylphenoxy)butanoic acid (25) condensed with Calicheamicin N-acetyl gamma dimethyl hydrazide and h-P67.6 (antibody, V domains shown, drug-linker amide on lysine side chains, sites not stated; drug-linker amide on lysine side chains, sites not stated) VH: EVQLVQSGAEVKKPGSSVKVSCKASGYTITDSNIHWVRQAPGQSLEWIGYIYPYNGGTDYNQKFKNRATLTVDNPTNTAYMELSSLRSEDTDFYYCVNGNPWLAYWGQGTLVTVSS VL: DIQLTQSPSTLSASVGDRVTITCRASESLDNYGIRFLTWFQQKPGKAPKLLMYAASNQGSGVPSRFSGSGSGTEFTLTISSLQPDDFATYYCQQTKEVPWSFGQGTKVEVKR | 0.31 | In vitro IC50 (3H-thymidine incorporation) [5]: 0.0071 ng/mL
Conjugate of 4-4-(4-fluorobenzoyl)phenoxy!butanoic acid (21) condensed with Calicheamicin N-acetyl gamma, dimethyl hydrazide and h-P67.6 (antibody, V domains shown, drug-linker amide on lysine side chains, sites not stated; drug-linker amide on lysine side chains, sites not stated) VH: EVQLVQSGAEVKKPGSSVKVSCKASGYTITDSNIHWVRQAPGQSLEWIGYIYPYNGGTDYNQKFKNRATLTVDNPTNTAYMELSSLRSEDTDFYYCVNGNPWLAYWGQGTLVTVSS VL: DIQLTQSPSTLSASVGDRVTITCRASESLDNYGIRFLTWFQQKPGKAPKLLMYAASNQGSGVPSRFSGSGSGTEFTLTISSLQPDDFATYYCQQTKEVPWSFGQGTKVEVKR | 0.76 | In vitro IC50 (3H-thymidine incorporation) [8]: 63 ng/mL
Conjugate of 4-2-(4-acetylphenyl)amino!methyl!-6-methoxyphenoxy!butanoic acid (28) condensed with Calicheamicin N-acetyl gamma dimethyl hydrazide and h-P67.6 (antibody, V domains shown, drug-linker amide on lysine side chains, sites not stated; drug-linker amide on lysine side chains, sites not stated) VH: EVQLVQSGAEVKKPGSSVKVSCKASGYTITDSNIHWVRQAPGQSLEWIGYIYPYNGGTDYNQKFKNRATLTVDNPTNTAYMELSSLRSEDTDFYYCVNGNPWLAYWGQGTLVTVSS VL: DIQLTQSPSTLSASVGDRVTITCRASESLDNYGIRFLTWFQQKPGKAPKLLMYAASNQGSGVPSRFSGSGSGTEFTLTISSLQPDDFATYYCQQTKEVPWSFGQGTKVEVKR | 0.85 | In vitro IC50 (3H-thymidine incorporation) [9]: < 0.005 ng/mL
Conjugate of 2-acetyl-10H-phenothiazine-10-hexanoic acid (32) condensed with Calicheamicin N-acetyl gamma dimethyl hydrazide and h-P67.6 (antibody, V domains shown, drug-linker amide on lysine side chains, sites not stated; drug-linker amide on lysine side chains, sites not stated) VH: EVQLVQSGAEVKKPGSSVKVSCKASGYTITDSNIHWVRQAPGQSLEWIGYIYPYNGGTDYNQKFKNRATLTVDNPTNTAYMELSSLRSEDTDFYYCVNGNPWLAYWGQGTLVTVSS VL: DIQLTQSPSTLSASVGDRVTITCRASESLDNYGIRFLTWFQQKPGKAPKLLMYAASNQGSGVPSRFSGSGSGTEFTLTISSLQPDDFATYYCQQTKEVPWSFGQGTKVEVKR | 1.25 | In vitro IC50 (3H-thymidine incorporation) [10]: 0.021 ng/mL
